The results in this text go back to patent US20260070984A1 (Boehringer Ingelheim, published 2026).

The Kd is the equilibrium constant for the complex coming apart. As usually defined, the koff is the first-order rate constant of dissociation. What is called kon is the second-order rate constant of association. A word on the EC50: it is the midpoint of the concentration-response curve. By EC50 (read off the curve) is commonly meant the concentration giving half of the maximal effect.

Experiment [1] addresses T1, human PD-1 expressed on cells (human, UniProt Q15116 25-288). The experiment can be described thus: cell-based or functional assay.
For experiment [2], the target named is T2, cynomologous PD-1 (cynomolgus monkey, UniProt B0LAJ3 25-170).
T2 construct: Used in SPR; also called cynomolgus PD-1; recombinant cynomologus PD-1
The experiment can be described thus: SPR, ProteOn XPR36, 1:1 binding model. For orientation: In SPR one partner is held on a chip, and binding of the other changes the refractive index at the surface.
Protocol: C) Affinity and kinetic data for the anti-PD-1 antibodies binding to cynomologous PD-1 were measured on the ProteOn™ XPR36 surface plasmon resonance optical biosensor, and globally fit to a 1:1 binding model (Table 11).

Experiment [3] deals with T3, recombinant human PD-1 (human, UniProt Q15116 25-167, limits assumed).
T3 construct: Soluble recombinant protein used in SPR; also called PDCD1; purified recombinant human PD-1
As to the kind of experiment: SPR, ProteOn XPR36, 1:1 binding model. The method, then:
Antibody PD1AB-6-4P (antibody in IgG4Pro backbone disclosed in WO2017/058859 to Celgene) was also tested.

Experiment [4] addresses T1, human PD-1 expressed on cells. As to the kind of experiment: cell-based or functional assay. This is another data set of the same source.
For experiment [5] the target is unchanged. The experiment can be described thus: cell-based or functional assay. This is another data set of the same source.
Experiment [6] shares this target. The experiment can be described thus: CHO-PD1-PDL1 DELFIA Eu TRF assay: enhancement of biotin labeled PD-L1 binding to CHO cells expressing PD-1, antibody titrated.
Protocol: (§1) 10,000 cells were plated and incubated overnight at 37° C.±5% CO2 incubator (humidified incubator). […] Plates were washed twice with 50 μl of 1× TRF Wash Buffer. 20 μL of Eu-Streptavidin reagent was added to the assay plate, and incubated at room temperature for one hour. Enhancement Solution was added and incubated for 30 minutes at RT.
The target is the same in experiment [7]. The experiment can be described thus: flow cytometry, AlexaFluor 647 labeled antibody on Jurkat cells expressing human PD-1. The method, then: Selectivity of anti-PD-1 antibody to human PD-1 protein in a cell-based assay was evaluated by flow cytometry. […] As a control, parental and PD-1 expressing Jurkat cells were incubated with anti-TNP isotype control antibodies. Following incubation, the cells were washed to remove non-bound antibody, fixed in PFA, and then washed in staining buffer. Binding of the antibody to the Jurkat cells was evaluated by flow cytometry. Unstained cells were also evaluated by flow cytometry as a negative control.
In general terms: Flow cytometry measures light scatter and fluorescence of single cells or particles in a stream.

Experiment [8] shares this target. The experiment can be described thus: cell-based or functional assay. This is another data set of the same source.
The target is the same in experiment [9]. The experiment can be described thus: cell-based or functional assay. The source holds these as a separate data set.
In experiment [10] the target is T2, cynomologous PD-1. As to the kind of experiment: SPR, ProteOn XPR36.
Experiment [11] deals with T1, human PD-1 expressed on cells. As to the kind of experiment: cell-based or functional assay. The source holds these as a separate data set.
Experiment [12] has as its target T3, recombinant human PD-1. The experiment can be described thus: SPR, ProteOn XPR36. The method, then: Kinetics and binding affinities were measured using the ProteOn™ XPR36 (Biorad, Hercules, CA) surface plasmon resonance optical biosensor using material generated from transient transfection following single column purification.
In experiment [13] the target is T1, human PD-1 expressed on cells. As to the kind of experiment: DELFIA Eu TRF assay: enhancement of biotin labeled PD-L1 binding to CHO cells expressing PD-1.
Protocol: as §1
Experiment [14] has the same target. The experiment can be described thus: flow cytometry: enhancement of PDL1-biotin/Streptavidin-APC binding to CHO cells expressing PD-1. The method, then: A second cell-based assay where PD-1 was expressed on CHO cells was also utilized to evaluate PD-1/PD-L1 interactions. […] 50 μl of 2×10⁶ cells/ml were added to each well (100,000 cells/well). Cells were centrifuged and re-suspended in 50 μl of the indicated antibody concentrations and incubated for 60 minutes on ice. […] Cells were washed and resuspended in 180 μl stain buffer +20μ PFA and data was acquired on a BD LSR II.

Where two headings read alike, the source gives them in different places.

T2 sequence (B0LAJ3 entry or part of it limits assumed): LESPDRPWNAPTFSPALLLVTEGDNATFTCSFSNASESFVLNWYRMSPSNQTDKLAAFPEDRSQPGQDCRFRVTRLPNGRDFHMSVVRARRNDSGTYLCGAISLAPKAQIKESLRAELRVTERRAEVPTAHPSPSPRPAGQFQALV
T1 sequence (Q15116 25-288): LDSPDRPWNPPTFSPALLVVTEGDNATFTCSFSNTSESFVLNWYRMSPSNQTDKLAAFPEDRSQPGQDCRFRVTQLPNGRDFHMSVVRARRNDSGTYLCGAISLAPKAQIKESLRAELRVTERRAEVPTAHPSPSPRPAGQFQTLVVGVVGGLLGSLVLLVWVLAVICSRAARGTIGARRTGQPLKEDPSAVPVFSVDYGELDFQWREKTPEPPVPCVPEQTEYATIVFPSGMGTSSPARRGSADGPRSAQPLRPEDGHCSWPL
T3 sequence (Q15116 25-167 limits assumed): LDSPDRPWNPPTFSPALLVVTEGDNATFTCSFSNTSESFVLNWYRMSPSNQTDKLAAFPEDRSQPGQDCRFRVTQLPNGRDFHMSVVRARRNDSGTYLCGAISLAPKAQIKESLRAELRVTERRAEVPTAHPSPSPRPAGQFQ

B1: Antibody A (antibody, human IgG4 S228P, kappa, V domains shown)
VH: EVQLVESGGGLVQPGGSLRLSCAASGFTFSDYYMSWVRQAPGKGLEWVSYISSGGGSKYYPDLVKGRFTISRDNAKNSLYLQMSSLRAEDTAVYYCARLPHYFAMDYWGQGTLVTVSS
VL: DIQMTQSPSSLSASVGDRVTITCSASQSISSDYLHWYQQKPGKAPKLLIYRTSNLASGVPSRFSGSGSGTDFTFTISSLQPEDIATYYCQQGTSLPRAFGQGTKLEIKR
notes: Humanized 723C2, human IgG4Pro/kappa
For the molecule B1, in experiment [1], the “Emax Values (%), Average, inhibition of IFNγ” value is 49% and the “IC50 Values (pM), Geomean, inhibition of IFNγ” value was found to be 7.4 pM. Also, in the experiment with cynomologous PD-1 [2], binding was characterised by a dissociation constant (Kd) of 26.5 nM, the koff was 0.00473 s⁻¹ and the on-rate constant (kon) was determined as 178000 M⁻¹ s⁻¹. Further, in the experiment with recombinant human PD-1 [3], the Kd is 2.73 nM, the koff was 0.000434 s⁻¹ and the kon stood at 159000 M⁻¹ s⁻¹. In experiment [4], the “Emax Values (%), Average, inhibition of IL-17A” value was determined as 69.8% and the “IC50 Values (pM), Geomean, inhibition of IL-17A” value came out at 41.1 pM.

B2: Antibody D (antibody, human IgG4 S228P, kappa, V domains shown)
VH: EVQLVESGGGLVQPGGSLRLSCAASGFTFSDYYMSWVRQAPGKGLEWVAYISSGGGSSYYPDLVKGRFTISRDNAKQSLYLQMNSLRAEDTAVYYCARLPHYFAMDYWGQGTLVTVSS
VL: DIQMTQSPSSLSASVGDRVTITCQASQSISSDYLHWYQQKPGKAPKLLIYRTSNLESGVPSRFSGSGSGTDFTFTISSLQPEDIATYYCQQGTSLPRAFGQGTKLEIKR
notes: Humanized 723C2, human IgG4Pro/kappa; also called 723C2-IgG4Pro-461-44 with IgK-462-08
Regarding B2, in experiment [1], the “Emax Values (%), Average, inhibition of IFNγ” value worked out at 50.1% and the “IC50 Values (pM), Geomean, inhibition of IFNγ” value worked out at 18 pM. Further, in the experiment with cynomologous PD-1 [2], the Kd was 45.2 nM, the koff worked out at 0.00674 s⁻¹ and the on-rate constant (kon) worked out at 149000 M⁻¹ s⁻¹. In the experiment with recombinant human PD-1 [3], the equilibrium dissociation constant (Kd) is 2.58 nM, the koff is 0.000574 s⁻¹ and the association rate constant (kon) was determined as 222000 M⁻¹ s⁻¹. Besides, in [4], the “Emax Values (%), Average, inhibition of IL-17A” value came out at 63.9% and the “IC50 Values (pM), Geomean, inhibition of IL-17A” value was determined as 31.9 pM.

B3: Antibody C (antibody, human IgG4 S228P, kappa, V domains shown)
VH: EVQLVESGGGLVQPGGSLRLSCAASGFTFSDYYMSWVRQAPGKGLEWVAYISSGGGSSYYPDAVKGRFTISRDNAKQSLYLQMQSLRAEDTAVYYCARLPHYFAMDYWGQGTLVTVSS
VL: DIQMTQSPSSLSASVGDRVTITCQASQSISSDYLHWYQQKPGKAPKLLIYRTSNLETGVPSRFSGSGSGTDFTFTISSLQPEDIATYYCQQGTSLPRAFGQGTKLEIKR
notes: Humanized 723C2, human IgG4Pro/kappa; also called Ab C; 723C2-IgG4Pro-461-47 with IgK-462-07
With B3, the “IC50 Values (nM), Geomean, inhibition of IFNγ” value in experiment [5] is 0.03 nM. Also, the EC50 in experiment [6] stood at 2.4 nM. Besides, in [7], the half-maximal effective concentration (EC50 (read off the curve)) was about 10 nM. Moreover, the “IC50 Values (pM), Geomean, inhibition of IL-21” value in experiment [8] stood at 6 pM. In experiment [1], the “Emax Values (%), Average, inhibition of IFNγ” value came to 46.8% and the “IC50 Values (pM), Geomean, inhibition of IFNγ” value was determined as 17.7 pM. For the same molecule, in experiment [9], the “IC50 Values (nM), Geomean, inhibition of IFNγ” value came to 0.03 nM. In the experiment with cynomologous PD-1 [2], this molecule had a Kd of 41 nM, an off-rate constant (koff) of 0.00633 s⁻¹ and a kon of 154000 M⁻¹ s⁻¹. Besides, in the experiment with recombinant human PD-1 [3], the Kd came out at 2.65 nM, the koff was 0.000463 s⁻¹ and the kon was determined as 175000 M⁻¹ s⁻¹. Besides, in experiment [4], the “Emax Values (%), Average, inhibition of IL-17A” value is 62.9% and the “IC50 Values (pM), Geomean, inhibition of IL-17A” value turned out to be 32.5 pM.

B4: Antibody B (antibody, human IgG4 S228P, kappa, V domains shown)
VH: EVQLVESGGGLVQPGGSLRLSCAASGFTFSDYYMSWVRQAPGKGLEWVAYISSGGGSSYYPDLVKGRFTISRDNAKNSLYLQMQSLRAEDTAVYYCARLPHYFAMDYWGQGTLVTVSS
VL: DIQMTQSPSSLSASVGDRVTITCQASQSISSDYLHWYQQKPGKAPKLLIYRTSNLETGVPSRFSGSGSGTDFTFTISSLQPEDIATYYCQQGTSLPRAFGQGTKLEIKR
notes: Humanized 723C2, human IgG4Pro/kappa; also called 723C2-IgG4Pro-461-41 with IgK-462-07
With B4, in experiment [1], the “Emax Values (%), Average, inhibition of IFNγ” value came out at 48.9% and the “IC50 Values (pM), Geomean, inhibition of IFNγ” value was found to be 18.4 pM. In the experiment with cynomologous PD-1 [2], this molecule gave a Kd of 32.9 nM, a koff of 0.00558 s⁻¹ and an on-rate constant (kon) of 169000 M⁻¹ s⁻¹. For the same molecule, in the experiment with recombinant human PD-1 [3], the Kd worked out at 1.62 nM, the koff turned out to be 0.000421 s⁻¹ and the kon was found to be 259000 M⁻¹ s⁻¹. In [4], the “Emax Values (%), Average, inhibition of IL-17A” value is 63.4% and the “IC50 Values (pM), Geomean, inhibition of IL-17A” value is 25.3 pM.

B5: PD1AB-6-4P (antibody, V domains shown)
VH: EVQLVQSGAEVKKPGATVKISCKASGFNIKDTYMHWVQQAPGKGLEWMGRIDPANGDRKYDPKFQGRVTITADTSTDTAYMELSSLRSEDTAVYYCARSGPVYYYGSSYVMDYWGQGTTVTVSS
VL: DIVMTQSPDSLAVSLGERATINCKSGQSVLYSSNQKNFLAWYQQKPGQPPKLLIYWASTRESGVPDRFSGSGSGTDFTLTISSLQAEDVAVYYCHQYLYSWTFGQGTKLEIK
With B5, the “IC50 Values (pM), Geomean, inhibition of IL-21” value in experiment [8] was 50 pM. Also, in experiment [1], the “Emax Values (%), Average, inhibition of IFNγ” value came to 40.1% and the “IC50 Values (pM), Geomean, inhibition of IFNγ” value worked out at 31.5 pM. The dissociation constant Kd with cynomologous PD-1 [10] was 25 nM. Further, in experiment [4], the “Emax Values (%), Average, inhibition of IL-17A” value is 67.5% and the “IC50 Values (pM), Geomean, inhibition of IL-17A” value was 176 pM.

B6: Chimeric 723C2 in IgG4Pro (antibody, V domains shown)
VH: EVQLVESGGGLVQPGGSLKLSCAASGFTFSDYYMSWVRQTPEKRLEWVAYISSGGGSSYYPDSVKGRFTISRDNTKNTLYLQMSSLKSEDTAVYYCARLPHYFAMDYWGQGTSVTVSS
VL: EIVLTQSPTTMAASPGEKITITCSASSSISSDYLHWYQQKPGFSPELLIYRTSNLASGVPARFSGSGSGTSYSLTIGSMEAEDVATYYCQQGTSLPRAFGGGTKLEIKR
With B6, the “IC50 Values (pM), Geomean, inhibition of IL-21” value in [8] was 12 pM. Further, in experiment [11], the “Emax Values (%), inhibition of NFAT activity” value is 42.6% and the “IC50 Values (nM), inhibition of NFAT activity” value was 0.13 nM. Moreover, in [1], the “Emax Values (%), Average, inhibition of IFNγ” value came out at 66.5% and the “IC50 Values (pM), Geomean, inhibition of IFNγ” value was 18 pM. For the same molecule, in the experiment with cynomologous PD-1 [2], binding was put at a Kd of 38.9 nM, the koff came out at 0.00721 s⁻¹ and the on-rate constant (kon) was found to be 185000 M⁻¹ s⁻¹. Besides, in the experiment with recombinant human PD-1 [3], the equilibrium dissociation constant (Kd) amounted to 2.58 nM, the dissociation rate constant (koff) worked out at 0.000582 s⁻¹ and the on-rate (kon) was determined as 226000 M⁻¹ s⁻¹. Further, in the experiment with recombinant human PD-1 [12], the Kd is 2.58 nM, the koff was found to be 0.000582 s⁻¹ and the on-rate constant (kon) came to 226000 M⁻¹ s⁻¹. In experiment [4], the “Emax Values (%), Average, inhibition of IL-17A” value came out at 70% and the “IC50 Values (pM), Geomean, inhibition of IL-17A” value was 14.4 pM.

B7: antibody 723C2 in human IgG4Pro backbone without the DC to DY mutation in H-CDR3 (antibody, V domains shown)
VH: EVQLVESGGGLVQPGGSLKLSCAASGFTFSDYYMSWVRQTPEKRLEWVAYISSGGGSSYYPDSVKGRFTISRDNTKNTLYLQMSSLKSEDTAVYYCARLPHYFAMDCWGQGTSVTVSS
VL: EIVLTQSPTTMAASPGEKITITCSASSSISSDYLHWYQQKPGFSPELLIYRTSNLASGVPARFSGSGSGTSYSLTIGSMEAEDVATYYCQQGTSLPRAFGGGTKLEIK
notes: Mouse 723C2 variable domains (H-CDR3 ending DC) in human IgG4Pro backbone; also called 723C2-4P
Consider B7, for which the concentration for a half-maximal effect (EC50 (read off the curve)) was about 2 nM in [13] and about 6 nM in experiment [14].
